From the DeepSol protein solubility set come the findings set out here.

The series can be described thus: soluble on expression in E. coli; label from the status in PepcDB or PDB records.
For “MDYEIENNHADSIRRGSIEVICGSMFSGKTEELLRRLRRAKIARQTVEIFKPTIDIRYDETDVVSHDKNAIASTPVDNSANILLLSSQVDVVGIDEAQFFDEGLVEVAQQLADQGVRVVIAGLDMDFRRQPFGPMPGLCAIADSVTKVHAVCVECGRLASYSFRRVQGDQQVMLGELNEYSPLCRTCYRKCSSPPQTEEIHSTI”, the “soluble on expression in E. coli” value is on record as “not soluble”. For the sequence “GSHMDSEIQMENLVERKHHRLARSERSGISDRDAKPTASIRDQLHTIVYRYPPTYVLSSEEQDLVWKFRFYLSSHKKALTKFLKCINWKLEDEVTQALWMLANWAPMDVEDALELLSPTFTHPQVRKYAVSRLAQAPDEDLLLYLLQLVQALKYEDPRHIVHLHGCIFPERDVVRSILDDNGSLLDQSSLSDLSATSSGLHASVIPANQRAASVLAAIKSDKSVSPGSAGGSGSGGQGSVALPNPSAPATPGSSSLPCDSNSNALMLAEGISFGSVPANLCTFLIQRACTNATLANYFYWYLSIEVEEVESVRKQDERAHDMYAMVLKMFLKVLENGNFNLRGIFYNLRKQRRFIDELVKLVKLVAKEPGNRNKKTEKFQKLLAEQDMFKVNFTNFEPIPFPLDPEIYITKIVPMRTSLFKSALMPAKLTFVTSIAHHEYAAIFKHGDDLRQDQLILQMITLMDKLLRRENLDLKLTPYKVLATSSKHGFLQYVDSCTVAEVLAREGNIHNFFRKHHPCDNGPYGISAEVMDTYIKSCAGYCVITYLLGVGDRHLDNLLLTTNGKLFHIDFGYILGRDPKPMPPPMKLSKEMVEAMGGISSEHHHEFRKQCYTAYLHLRRHANVMLNLFSLMVDATVPDIALEPDKAVKKVEENLQLGLTDEEAVQHLQSLLDVSITAVMPALVEQIHRFTQYWRK”, the “soluble on expression in E. coli” value is “soluble”.

With VCSCRLVFCRRTELRVGNCLIGGVSFTYCCTRV, the “soluble on expression in E. coli” value is on record as “soluble”. Turning to “TKDFNWNTDFIFSNAKNEVTDLKQNANVMELISGNGFAKQGYPVRGLFSIPFVGLDKDGIPVIINEKGEATSTDINFQERQNTGFLKYEGPTDPTITGSLGNMFSYKGFRLNLFITYSFGNVIRLNPVFKAYYSDLTAMTREFKNRWTLPGDEAKTNVPAILSKRMYDSNEDLKYAYNAYNYSTERIAKGDFIRLKEISLAYDFPKAWINPLKLTDLSLKVQATNLFLIYADDKLNGQDPEFFNAGGVASPVPRQFTITLRLGL”, the “soluble on expression in E. coli” value was “not soluble”. As for “MGSDKIHHHHHHMEVLRTENLKSYYILDIFGKKRVVKAVDDVNISIMENEIYGIAGESGCGKSTLLRALFAAIEPPQRIVGGKVLYRENGKEVDVYSLSDEERRRLRWSFISYVPQGSMSVLNPVVKIKETFKDFIESHTTGKTKEEAYEMAKEHIKELGLPIEILNAYPHQLSGGMRQRVTIALATVLSPKVIIADEPTTALDVVTQRGVVQLLKEIQSSRQNTIILVTHDMGVHANVTDRIAIMYAGKIIEEGKTEEIFENPMHPYTKYLIYSLPKFGDKGRRESAPGSPPSLADLPPGCSFHPRCPHAFDRCKKEVPPLKEYLPGHRVACWLVEEGKNAAS”, the “soluble on expression in E. coli” value is “not soluble”.

Regarding “MHHHHHHMELSLASITVPLESIKPSNILPVTVYDQHGFRILFHFARDPLPGRSDVLVVVVSMLSTAPQPIRNIVFQSAVPKVMKVKLQPPSGTELPAFNPIVHPSAITQVLLLANPQKEKVRLRYKLTFTMGDQTYNEMGDVDQFPPPETWGSL”, the “soluble on expression in E. coli” value is given as “soluble”. The same measure for “ASDDELFSMLDQRFGGGEDLLMSGDNGMTEEKLRRYLKRTVTELDSVTARLREVEHRAGE”: “soluble”; for “MRVVALGDLHANFPLLWRILRREGLADEGFRPTEALRSGRVRLVLLGDLVHPKTPRDYARLTGLEAYDPEDPFHLRLAAGAQIRELFRLKAFQEEAGDHVTILLGNHEAALLEGSPILGNRHLKHLEFHPEHGGKALPEALRSWMASFPKELVLKGVHFAHVGPVPWLQEYDGLFYAQSEAKTWWFLTPEYVERMGYRYGVYGHTPMPDGILLKDRFALIDALDLGEYLVLDPEADPPRPEVRRLHE”: “soluble”; for “MVIELKNEKVTVQFKEFGGALSSIKDQDGIEYLWQGNPAYWSSQAPVLFPICGSLRNDKGIYTSKKHSHRYGSIPRHGLVRKKNFRFEQLGKDSVVFTITPDKEMLMQYPYHFELKIIYTLKHTTIRTEYQVINKEKESIMPYFIGGHPGLNCPLFAGDRYEDYYLEFEKEETCTVPKSFPDTGLLDLQDRKIFLKGQKYLDLDYSLFTHDAITLDNLQSRSVSLRSKNHGGGLRLDFADFPYLILWSTANKSPFIALEPWSGLSTAVDESDYFEEKRNVSFVEPGQFDRNYFDITVLLEHHHHHH”: “soluble”. With “AHMAMIKMSPEEIRAKSQSYGQGSDQIRQILSDLTRAQGEIAANWEGQAFSRFEEQFQQLSPKVEKFAQLLEEIKQQLNSTADAVQEQDQQLSNNFGLQ” the entry was “soluble”; with “MSGIFSVYVGNAPFQTTEEELGNFFSSIGQINNVRIVCDRETGRPRGFAFIEFAEEGSAQRAVEQMNGAEFNGRPLRVNLANK”, “soluble”. The same measure for “MSLSDRDSTLSRLKSAGENGDVEAQYALGLMYLYGEILDVDYQQAKIWYEKAADQNDPRAQAKLGVMYANGLGVNQDYQQSKLWYEKAAAQNDVDAQFLLGEMYDDGLGVSQDYQHAKMWYEKAAAQNDERAQVNLAVLYAKGNGVEQDYRQAKSWYEKAAAQNSPDAQFALGILYANANGVEQDYQQAKDWYEKAAEQNFANAQFNLGMLYYKGEGVKQNFRQAREWFEKAASQNQPNAQYNLGQIYYYGQGVTQSYRQAKDWFEKAAEKGHVDAQYNLGVIYENGEGVSQNYQQAKAWYEKAASQNDAQAQFELGVMNELGQGESIDLKQARHYYERSCNNGLKKGCERLKELLYKEGHHHHHH”: “soluble”; for “MGHHHHHHSHMTLVLSMNRFCEPIVSEGAAEIAGYQTLWEADSYGGPSPPGPAQAPLQGDRGAGPPLAGSHYRGISNPITTSKITYFKRKYVEEEDFHPPLSSCSHKEQSRGQLVEDMTIKRHQLRNKYKTRIQGFLCDAARFLYPSNKCICDRLKNDD”: “not soluble”; for “GMTDWQQALDRHVGVGVRTTRDLIRLIQPEDWDKRPISGKRSVYEVAVHLAVLLEADLRIATGATADEMAQFYAVPVLPEQLVDRLDQSWQYYQDRLMADFSTETTYWGVTDSTTGWLLEAAVHLYHHRSQLLDYLNLLGYDIKLDLFE”: “soluble”. As for “SEVERKIVSLEALYIVYDADGTVAGELLYLLRKWLGKGHCAACDITHGPRKVKPEWTILQKTGWLGVPLFNIHRDEMEPKLRSAVSCALPCVAALVDNGDYVLLLQPEDLESCKGQVSKLQEKIVEALKDFGFQVNESFTSVVTSDLSDTCPSTLDREKEEDDAVVPF”, the “soluble on expression in E. coli” value is recorded as “soluble”. Take “MASAIGKNFQSGARECSTFEKIKTELSAAGLSSGAIDGILKIAATYKPKEGEKPDLAQAMVTIGKLFAELETFIKTQPESDQTIYHAIIEKKKAELVAHGIKF”: the “soluble on expression in E. coli” value is on record as “not soluble”.

Regarding “SDLPDSASRVFCGRILSMVNTDDVNAIILAQKNMLDRFEKTNEMLLNFNNLSSARLQQMSERFLHHTRTLVEMKRDLDSIFRRIRTLKGKLARQHPEAFSHIPEASFLEEEDEDPIPPSTTTTIATSEQSTGSCDTSPDTVSPSLSPGFEDLSHVQAGSPAINGRSQTDDEEMTGE”, the “soluble on expression in E. coli” value is given as “soluble”. The same measure for “MIPTATYRLQFRNGMTFDRAAALVPYLKNLGISHLYASPIFTATKASTHGYDVTDANEIEPSIGGREGFERLVAELKAQGLGLIIDIVPNHMASSLENAWWRDVLEYGKESRYARHFDIDWSRRLTLPFLGDTFDAVLENGEIAIKPDPATGKPAFAYYDNYYPLAPATWQGREAEILALTDKAAIADLHERQPWKLMSWRDAARSLSYRRFFEVTGLVGMRVEDKTVFDDTHRLILELVRTGAVDGLRIDHIDGLADPKAYLARLRQEVGPACYITVEKILAKGEQLPDDWPVSGTTGYEFIASLAEVLVDDEQIDNLRQAYETVKGAPVDMRAELRAAKLLMVDRNFEGEFTRLLALALSIASELQIAQEESVVRQALRELLIAFPVYRTYGTAEGLPPTDICLLHRIVERVKTLETPPQPEALTFLSRLLTGDVPASSQEEATQFRVRFQQLTGPLMAKSVEDTLFFRQNMGLALNEVGAEPVTHHFSIERFHHEMKTRQARQPDALSGTSTHDTKRGEDARARLYTLTEAPEQWSECLARWRQMNQTHVKFLNDGTAPKSADTWMLYQALTGVWPPVLQPQDETGLNALKTRFEAFVEKALREAKLRTDWVDSNEAYETAMLDYARYLLAPDNQTFLQDFYRSLQPFIRAGLVNSLTQTVIKLTAPGVPDIYQGSEALNFSLVDPDNRREPDFATLAQQLDQLTPGVFSREESWLNGQVNQYVTAALLRLRQQNHELFRFGDYIPLRAVGQRADKVIAYARVNHDDALIVVAPRLVFAECDGLLSQSHSGFWSGTDIIIPGQLNQHRYRNVLTQERLMPGERLSLASHQGGVLVLMSD”: “not soluble”. The same measure for “MNRRQFLGSAAAVSLASAASFARAHGHADYHHHHDMQPAAASAYTAVRQTAAHCLDAGQVCLTHCLSLLTQGDTSMSDCAVAVRQMLALCGAVHDLAAQNSPLTRDAAKVCLEACKQCAKACKEHSAHHAECKACYESCLDCIKECEKLAALEHHHHHH”: “soluble”. As for “GMNKEVDLSVSCLGKVKELKYDVIILPWGATEPHNLHLPYLTDCILPHDIAVEAAELALSRSGVRCMVMPPVPFGAHNPGQRELPFCIHTRYATQQAILEDIVSSLHVQGFRKLLILSGHGGNNFKGMIRDLAFEYPDFLIAAANWFEVVSPKGYFEAEIDDHAGESETSVMMHYHPELVNLAEAGDGESKPFAIASLNEKVAWVPRHWDKATVDSGVGNPKKATAEKGERYVKPIVEKLAGLFEEMAQHDLYE”, the “soluble on expression in E. coli” value is listed as “soluble”.

As for “MGSDKIHHHHHHMDNPRSIRVHASELEVGRPLSWAVYDENGVLLLNKGMAPATEAQIIAMLQRGVFRQPGSGVGAGAAGSKSAIPPMGLGPSEDESKTRLTGDPIPFDDLAMQPGEVLQLHPALEVVAADVPAVLIGYLKDRAIVVATPMVSGKPLLVKDGTLFNIKTFSGTSLYNFRTRVLASHSHPMPHLHLEYPRLVCQTKIRKALRALTDLPATLLNPASGDSRDVVLKDLSVGGAKIVLPEPVTCAKGDPFVVGFRIKIGDDLEEAIRADAVMCSAESRTGKETTVHTMSVQFKELPKSTSLAIMALVYRLQLRKG”, the “soluble on expression in E. coli” value is listed as “not soluble”. Consider “MGYLNNVTGYREDLLANRAIVKHGNFALLTPDGLVKNIIPGFENCDATILSTPKLGASFVDYLVTLHQNGGNQQGFGGEGIETFLYVISGNITAKAEGKTFALSEGGYLYCPPGSLMTFVNAQAEDSQIFLYKRRYVPVEGYAPWLVSGNASELERIHYEGMDDVILLDFLPKELGFDMNMHILSFAPGASHGYIETHVQEHGAYILSGQGVYNLDNNWIPVKKGDYIFMGAYSLQAGYGVGRGEAFSYIYSKDCNRDVEILEHHHHHH”, for which the “soluble on expression in E. coli” value was “not soluble”. As to “MNGRSLIFSILFVFSELKCDDTDENDQHGTIYQFQAKNIDGKMVSMEKYRDKVVLFTNVASYCGYTDSNYNAFKELDGIYREKGFRVAAFPCNQFEKQEPETEGKILDFVKSSYTYAPDMYSKIEVNGQNTHPLWKFLKKERGSSLSADIPWNFSKFLVDKNGHVVGRYSHSVNPIDLEEEISRLLNS”, the “soluble on expression in E. coli” value is recorded as “not soluble”. With “TLTIYPAAKPNGLAVVACPGGGYIRLAMNHEGHDMADWFNAQGITYAVLKYRMPNGHHDVPLSDAHQAIRLMREHANEWHIQKVGIMGASAGGHLASTAATHYTAGTRPDFQILFYPVISMDLSNCHKGSRDNLLGKSPSEELVRLYSNELQVTGDTPPAFIMHSSDDGAVPVSNSVSYYLALVKNKVPASLHTYPIGGHGWGFRDSFTYKRQWTGELEKWLREIL” the entry was “not soluble”.
